According to US20110280881A1, “NOVEL ANTI-HSP90 MONOCLONAL ANTIBODY” (RIKEN, priority 2010, published 2011):

What was measured:
OT-I CD8+ T cells [1] = assay: In vivo cross-presentation assay with free 6H8 antibody administered concurrently; design: species or system mouse; conditions: 72 hours
Procedure: (1) CFSE-labeled CD8^+ T cells of an OT-I/CD45.1 mouse were transferred to recipient mice from the tail vein, with 6H8-OVA [or 6H8 (F(ab′)2)—OVA, or OVA, or IgG2a-OVA] (0.3 μg) and the free 6H8 antibody [or 6H8 (F(ab′)2) or IgG2a] (30 μg) administered from the tail vein concurrently. (2) 72 hours later, the spleen was recovered from each mouse, and 2×10^6 splenocytes were stained with the PE-CD45.1 antibody in a 96-well round-bottomed plate for 30 minutes (while cooling on ice). (3) The CFSE intensity of CD45.1-positive cells (OT-I CD8^+ T cells) was determined using FACS Canto (BD).

[2] = tested on: cell surface HSP90 on DC2.4 cells; assay: Internalization of cell surface HSP90 by the 6H8 antibody; format: cell-based
Procedure: The behavior of the 6H8-HSP90 complex after being recognized by the 6H8 antibody was examined as described below. First, DC2.4 cells were incubated in the presence of biotinylated 6H8 (1 μg/ml) on ice for 30 minutes and washed. Next, the cells were incubated at 37° C. with 5% CO2 for 0, 10, 20, 30, or 60 minutes. After cooling on ice, the cells were stained with PE-Cy5-streptavidin and analyzed by FACS. The results are shown in the left panel of FIG. 4B. Shown in the right panel are bar graphs for the MFI of each group.
Furthermore, immunostaining was performed to compare the behavior of HSP90 with the behaviors of the MHC class 1 molecule H-2K^b and the MHC class II molecule I-A^b. First, DC2.4 cells were incubated in the presence of the biotinylated 6H8 antibody and the FITC-labeled anti-H-2K^b antibody or anti-I-A^b antibody (Pharmingen, the antibody was used at a 100-fold dilution) in the same manner as the above. The cells were stained with PE-Cy5-streptavidin, returned to room temperature and incubated for 20 minutes, and then examined using a confocal microscope. […] It was confirmed that cell surface HSP90 was internalized by the 6H8 antibody.

[3] = tested on: cell surface HSP90 on DC2.4 cells; assay: Inhibition of 6H8-OVA cross-presentation by pre-treatment of DC2.4 cells with antibodies; format: cell-based; conditions: antibody 20 μg/ml 15 minutes, then 6H8-OVA 3 or 1 μg/ml, IFNγ ELISA
Procedure: Pellets of DC2.4 cells (1.5×10^6 cells) were incubated with 20 μg/ml of each antibody [6H8D2 (6H8), 2A6E9 (2A6) or 4B6G12 (456)] at 37° C. with 5% CO2 for 15 minutes. Subsequently, 6H8-OVA was added to a concentration of 3 or 1 μg/ml, and the pellets were incubated at 37° C. with 5% CO2 for 3 hours. After being washed to remove the unreacted antibody and 6H8-OVA, the cells were fixed in 0.5% para-formaldehyde. These cells (1×10^4 cells) were co-cultured with 1×10^5 OT-I CD8^+ T cells in a 96-well round-bottomed plate at 37° C. with 5% CO2; the supernatant was recovered as appropriate and assayed for IFNγ according to a standard ELISA method.

cell surface HSP90 = assay: FACS of 6H8-OVA bound to DC2.4 and DC2.4L cells with anti-OVA antibody; format: binding
Procedure: Furthermore, using DC2.4L cells lacking cell surface HSP90 (a line detectable with 6H8 antibody, and showing decreased expression levels of cell surface HSP90 and H-2K^b; obtained during cultivation of DC2.4 and established by passage culture), the specificity of 6H8-OVA for cell surface HSP90 was examined. DC2.4 and DC2.4L cells were incubated along with the fractions 15 to 19 containing 6H8-OVA (mixture) (30 μg/ml), after which the cells were stained with the biotinylated anti-OVA monoclonal antibody and PE-Cy5 streptavidin, and analyzed by FACS.

OT-I CD8+ T cells [4] = assay: In vivo proliferation of transplanted CFSE-labeled OT-I CD8+ T cells; design: species or system mouse; conditions: for proliferation of transplanted OT-I CD8+ T cells: 3 μg fractions 15 to 19 (mixture), three days
Procedure: First, CFSE-labeled OT-I CD8^+ T cells were generated as follows: A 10 mM CFSE stock solution in DMSO was diluted with PBS to prepare a 10 μM CFSE solution. A pellet of splenocytes prepared in a 15-ml tube was thoroughly loosened by tapping, after which 2 ml of the 10 μM CFSE solution was added thereto, and the mixture was gently vortexed. After being allowed to stand at room temperature for 5 minutes, the cells were washed twice with PBS (5 ml).
The CFSE-labeled OT-I CD8^+ T cells were transplanted to recipient mice from the tail vein. The recipient mice used were a wild-type B6 mouse (WT B6) and a TAP1-deficient mouse [TAP1 KO (purchased from Jackson Laboratory, U.S.A.)]. At the same time, 3 μg of the fractions 15 to 19 (mixture), 3 μg of the fraction 33, or a mixture of the fraction 33 (3 μg) and the free 6H8 antibody (3 μg) was injected. Three days later, splenocytes of each recipient mouse were collected and examined for proliferation of the transplanted cells.
A mixture of the fractions 15 to 19 containing the 6H8-OVA conjugate was injected into recipient mice at a series of doses, and the proliferation of OT-I CD8^+ T cells was examined in the same manner as the above. As a result, higher doses of the mixture more potently promoted the proliferation of CD8^+ T cells, although this effect was observed even at 0.1 μg (upper panel of FIG. 8C).

OT-II CD4+ T cells = assay: In vitro antigen presentation assay, DC2.4 cells with OT-II CD4+ T cells, IFNγ; format: cell-based, mouse; conditions: DC2.4 pulsed with series of doses, IFNγ secreted
Procedure: Next, DC2.4 cells were pulsed with a series of doses of 6H8-OVA (fractions 15 to 19) and free OVA (fraction 33) and incubated along with OT-I CD8^+ T cells and OT-II CD4^+ T cells [splenocytes of an OT-II mouse were recovered, and CD11b-positive cells were removed according to a standard protocol using BD IMag anti mouse CD11b magnetic particles DM (BD Biosciences Pharmingen, 558013); next, CD4-positive cells were purified according to a standard protocol using BD IMag anti mouse CD4 particles DM (BD Biosciences Pharmingen, 551539); the cells obtained were used as the OT-II CD4^+ T cells], and the amount of IFNγ secreted from T cells was measured, whereby the cross-presentation potential of 6H8-OVA was evaluated.

B1: 6H8: anti-HSP90 monoclonal antibody produced by hybridoma FERM BP-11222; epitope … (antibody)
VH: QVQLQQSGPELVKPGASVRISCKASGYTFTSYYIHWVKQRPGQGLEWIGWIYPGNVNTKYNEKFKGKATLTADKSSSTAYMQLSSLTSEDSAVYFCARYGNYPFAYWGQGTLVTVSAAKTTAPSVYPLAPVCGDTTGSSVTLGCLVKGYF
VL: DVVMTQTPLSLPVSLGDQASISCRSSQSLVHSNGNTYLHWYLQKPGQSPKLLIYKVSNRFSGVPDRFSGSGSGTDFTLKISRVEAEDLGVYFCSQSTHVPPTFGGGTKLEIKRADAAPTVSIFPPSSEQLTSGGASVVCFLNNFYPKDINVKWKIDGS
OT-I CD8+ T cells [1]; free antibody 30 μg with 6H8-OVA 0.3 μg
  effect of concurrently administered free antibody on OT-I CD8+ T cell proliferation reaction by 6H8-OVA: remarkably enhanced
[2]; DC2.4, 20 minutes at room temperature
  internalization of cell surface HSP90 (confocal microscope): internalized
[2]; DC2.4, biotinylated 6H8 1 μg/ml, 37° C.
  time for the 6H8-HSP90 complex to disappear from the cell surface (enter into cells): about 10 minutes
[3]
  effect of antibody pre-treatment on the cross-presentation effect of 6H8-OVA: attenuated

B2: 6H8-OVA: high molecular weight conjugate of the 6H8 antibody and maleimide-activated OVA (conjugate)
VH: B1 VH
VL: B1 VL
chain: GSIGAASMEFCFDVFKELKVHHANENIFYCPIAIMSALAMVYLGAKDSTRTQINKVVRFDKLPGFGDSIEAQCGTSVNVHSSLRDILNQITKPNDVYSFSLASRLYAEERYPILPEYLQCVKELYRGGLEPINFQTAADQARELINSWVESQTNGIIRNVLQPSSVDSQTAMVLVNAIVFKGLWEKAFKDEDTQAMPFRVTEQESKPVQMMYQIGLFRVASMASEKMKILELPFASGTMSMLVLLPDEVSGLEQLESIINFEKLTEWTSSNVMEERKIKVYLPRMKMEEKYNLTSVLMAMGITDVFSSSANLSGISSAESLKISQAVHAAHAEINEAGREVVGSAEAGVDAASVSEEFRADHPFLFCIKHIATNAVLFFGRCVSP
OT-I CD8+ T cells [1]; 0.3 μg alone
  proliferation reaction of adoptively transferred OT-I CD8+ T cells: slight proliferation reaction
Cell surface HSP90; DC2.4L cells lacking cell surface HSP90, 30 μg/ml
  staining of DC2.4L cells with anti-OVA antibody after incubation with conjugate: not recognized by the OVA monoclonal antibody
Cell surface HSP90; DC2.4 cells expressing cell surface HSP90, 30 μg/ml
  staining of DC2.4 cells with anti-OVA antibody after incubation with conjugate: recognized by the anti-OVA monoclonal antibody
OT-I CD8+ T cells [4]; TAP1-deficient mouse
  proliferation of transplanted OT-I CD8+ T cells: did not induce the proliferation of CD8^+ T cells at all
OT-I CD8+ T cells [4]; series of doses injected into recipient mice
  dose at which promotion of proliferation of OT-I CD8+ T cells was observed: ≤ 0.1 µg
OT-I CD8+ T cells [4]; wild-type B6 mouse
  proliferation of transplanted OT-I CD8+ T cells: proliferation of CD8^+ T cells was confirmed
OT-II CD4+ T cells
  antigen presentation to OT-II CD4+ T cells: weak, although it was better than free OVA
